Drawing on article PMC6355983, “Structure of the Large Extracellular Loop of FtsX and Its Interaction with the Essential Peptidoglycan Hydrolase PcsB in Streptococcus pneumoniae” (mBio, 2019), this text covers Kd, Ka and dH for 2 molecules.

By Kd is commonly meant the constant that tells how readily two partners part at equilibrium. Low readings indicate higher affinity, high ones lower affinity.

One test has as its target T1, PcsB CC (Streptococcus pneumoniae, UniProt A0A0H2ZQ76).
T1 chain: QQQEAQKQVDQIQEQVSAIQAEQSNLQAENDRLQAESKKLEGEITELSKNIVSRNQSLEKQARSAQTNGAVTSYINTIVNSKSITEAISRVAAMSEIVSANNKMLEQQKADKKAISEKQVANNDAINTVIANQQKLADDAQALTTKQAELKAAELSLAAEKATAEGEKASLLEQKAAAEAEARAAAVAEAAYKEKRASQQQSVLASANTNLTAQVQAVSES
The test can be described thus: ITC; given as Ka. On the technique in general: ITC needs no label: the signal is the heat of the interaction.

The target of test [1] is T2, PcsB coiled-coil domain, PscBCC(47–267) (Streptococcus pneumoniae, UniProt A0A0H2US70 47-267).
T2 construct: PcsB peptidoglycan hydrolase, Streptococcus pneumoniae, coiled-coil domain, residues 47 to 267; also called PcsB-CC(47–267); His-PscBCC(47–267); source: E. coli strain derived from BL21(DE3)
T2 sequence (looked up): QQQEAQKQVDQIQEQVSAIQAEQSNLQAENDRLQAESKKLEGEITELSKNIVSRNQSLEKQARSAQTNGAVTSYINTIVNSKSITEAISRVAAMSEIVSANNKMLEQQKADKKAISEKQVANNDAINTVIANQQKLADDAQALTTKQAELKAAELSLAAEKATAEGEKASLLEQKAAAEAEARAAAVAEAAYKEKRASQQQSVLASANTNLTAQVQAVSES
As to the kind of experiment: ITC; titration of PscBCC with FtsX_(ECL1) (wild type or L115A M119A); 50 mM potassium phosphate, 50 mM NaCl, 0.5 mM EDTA, pH 7.0, 25.0°C; one-site binding model. The note with it: both partners purified.

B1: FtsX ECL1 (protein)
chain: TAKLATDIENNVRVVVYIRKDVEDNSQTIEKEGQTVTNNDYHKVYDSLKNMSTVKSVTFSSKEEQYEKLTEIMGDNWKIFEGDANPLYDAYIVEANAPNDVKTIAEDAKKIEGVSEVQDGGA
In the test with PcsB CC, B1 gave a dissociation constant (Kd) of 33.3 µM. In other words, the double-digit micromolar range.

B2: FtsX large extracellular loop 1 (FtsX_(ECL1)), residues 46 to 168 (domain or fragment, Streptococcus pneumoniae, UniProt Q04LE4 46-168, looked up)
chain: NTAKLATDIENNVRVVVYIRKDVEDNSQTIEKEGQTVTNNDYHKVYDSLKNMSTVKSVTFSSKEEQYEKLTEIMGDNWKIFEGDANPLYDAYIVEANAPNDVKTIAEDAKKIEGVSEVQDGGA
notes: FtsX, Streptococcus pneumoniae, large extracellular loop (ECL1), residues 46 to 168; Uniformly 15N-labelled when observed by NMR, unlabelled when added to 15N PcsBCC(47-254) and in ITC; also called wild-type (WT) FtsX_(ECL1); Spn ECL1; source: E. coli strain derived from BL21(DE3); LB or M9 minimal medium with 15NH4Cl
As for B2, in test [1], the Ka was 30000 M⁻¹, the dissociation constant (Kd) was determined as 34 ± 6 µM and the dH was -2.1 ± 0.2 kcal/mol.
